Experimental findings from patent US5808025 are described below.

In assay [1] the target is chimeric selectin L2P (human) (UniProt P16109).
Assay [2] addresses chimeric selectin L2P3L (human) (UniProt P16109).

Consider LAM1-3 mAb (antibody), for which the lymphocytes bound/HEV (lymphocytes bound/HEV) worked out at 0.074 in assay [1], 0.08 in assay [2] and 0.05 in the assay with L-selectin (human).
